Measurements as given in paper PMC10397247.

How the values were obtained:
Experiment in all cases: two-hybrid library CCmax;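 further: natural log of median RNA to DNA barcode read ratio; higher means stronger binding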
4H2617-AA = target: T1, 4H2617-AA
T1 chain: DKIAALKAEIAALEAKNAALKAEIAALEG

4H2642-AA = target: T2, 4H2642-AA; conditions: mean of both orientations
T2 chain: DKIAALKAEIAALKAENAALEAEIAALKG

4H2729-AA = target: T3, 4H2729-AA; conditions: mean of both orientations
T3 chain: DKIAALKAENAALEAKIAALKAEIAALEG

4H2754-AA = target: T4, 4H2754-AA; conditions: mean of both orientations
T4 chain: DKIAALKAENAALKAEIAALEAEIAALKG

4H2837-AA = target: T5, 4H2837-AA; conditions: mean of both orientations
T5 chain: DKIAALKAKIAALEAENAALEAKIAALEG

4H2883-AA = target: T6, 4H2883-AA; conditions: mean of both orientations
T6 chain: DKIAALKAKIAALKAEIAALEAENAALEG

4H2944-AA = target: T7, 4H2944-AA; conditions: mean of both orientations
T7 chain: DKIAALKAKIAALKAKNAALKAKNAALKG

4H2949-AA = target: T8, 4H2949-AA; conditions: mean of both orientations
T8 chain: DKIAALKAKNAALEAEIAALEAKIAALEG

4H3112-AA = target: T9, 4H3112-AA
T9 chain: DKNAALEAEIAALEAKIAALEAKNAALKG

4H317-AA = target: T10, 4H317-AA; conditions: mean of both orientations
T10 chain: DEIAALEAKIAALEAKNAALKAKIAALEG

4H3343-AA = target: T11, 4H3343-AA; conditions: mean of both orientations
T11 chain: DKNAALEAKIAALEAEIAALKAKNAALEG

4H335-AA = target: T12, 4H335-AA; conditions: mean of both orientations
T12 chain: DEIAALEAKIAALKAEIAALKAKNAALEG

4H342-AA = target: T13, 4H342-AA; conditions: mean of both orientations
T13 chain: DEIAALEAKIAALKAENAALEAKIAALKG

4H3427-AA = target: T14, 4H3427-AA; conditions: mean of both orientations
T14 chain: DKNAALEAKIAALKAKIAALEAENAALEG

4H3606-AA = target: T15, 4H3606-AA; conditions: mean of both orientations
T15 chain: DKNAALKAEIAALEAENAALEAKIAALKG

4H3627-AA = target: T16, 4H3627-AA; conditions: mean of both orientations
T16 chain: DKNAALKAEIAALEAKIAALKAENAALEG

4H3655-AA = target: T17, 4H3655-AA; conditions: mean of both orientations
T17 chain: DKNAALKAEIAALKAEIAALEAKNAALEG

4H3844-AA = target: T18, 4H3844-AA; conditions: mean of both orientations
T18 chain: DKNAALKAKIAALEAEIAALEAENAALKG

4H3921-AA = target: T19, 4H3921-AA; conditions: mean of both orientations
T19 chain: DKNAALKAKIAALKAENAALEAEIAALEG

4H429-AA = target: T20, 4H429-AA; conditions: mean of both orientations
T20 chain: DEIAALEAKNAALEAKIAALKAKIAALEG

4H454-AA = target: T21, 4H454-AA; conditions: mean of both orientations
T21 chain: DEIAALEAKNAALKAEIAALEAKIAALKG

4H48-AA = target: T22, 4H48-AA; conditions: mean of both orientations
T22 chain: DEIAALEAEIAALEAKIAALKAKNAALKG

4H566-AA = target: T23, 4H566-AA; conditions: mean of both orientations
T23 chain: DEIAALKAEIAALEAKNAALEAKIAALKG

4H605-AA = target: T24, 4H605-AA; conditions: mean of both orientations
T24 chain: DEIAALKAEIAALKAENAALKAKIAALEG

4H678-AA = target: T25, 4H678-AA; conditions: mean of both orientations
T25 chain: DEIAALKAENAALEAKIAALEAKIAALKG

4H717-AA = target: T26, 4H717-AA; conditions: mean of both orientations
T26 chain: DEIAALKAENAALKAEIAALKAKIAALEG

4H780-AA = target: T27, 4H780-AA; conditions: mean of both orientations
T27 chain: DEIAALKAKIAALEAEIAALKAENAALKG

4H794-AA = target: T28, 4H794-AA; conditions: mean of both orientations
T28 chain: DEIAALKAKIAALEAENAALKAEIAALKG

4H881-AA = target: T29, 4H881-AA; conditions: mean of both orientations
T29 chain: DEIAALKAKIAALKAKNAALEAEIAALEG

4H906-AA = target: T30, 4H906-AA; conditions: mean of both orientations
T30 chain: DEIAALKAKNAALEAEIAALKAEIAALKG

4H993-AA = target: T31, 4H993-AA; conditions: mean of both orientations
T31 chain: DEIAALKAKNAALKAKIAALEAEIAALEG

4H775-AA = target: T32, 4H775-AA
T32 chain: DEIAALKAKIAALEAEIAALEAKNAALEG

4H816-AA = target: T33, 4H816-AA; conditions: mean of both orientations
T33 chain: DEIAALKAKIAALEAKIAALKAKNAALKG

4H87-AA = target: T34, 4H87-AA; conditions: mean of both orientations
T34 chain: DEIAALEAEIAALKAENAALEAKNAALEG

Work on DKIAALKAEIAALEAKNAALKAEIAALEG [4H2617-AA] yielded an interaction score (4H2617-AA) of 1.29, an interaction score (4H2642-AA) of 2.25 and an interaction score (4H2729-AA) of 2.54. For the same binder, the interaction score (4H2754-AA) was -1.08, the interaction score (4H2837-AA) was 2.22 and the interaction score (4H2883-AA) was -1.02. For the same binder, the interaction score (4H2944-AA) was -0.31, the interaction score (4H2949-AA) was 1.53 and the interaction score (4H3112-AA) was -1.06. The interaction score (4H317-AA) was 1.65, the interaction score (4H3343-AA) was -1.31 and the interaction score (4H335-AA) was 0.00978. It also gave an interaction score (4H342-AA) of 2.32, an interaction score (4H3427-AA) of -0.774 and an interaction score (4H3606-AA) of 2.03. It also gave an interaction score (4H3627-AA) of 0.895, an interaction score (4H3655-AA) of -1.76 and an interaction score (4H3844-AA) of -1.39. It also gave an interaction score (4H3921-AA) of 0.979, an interaction score (4H429-AA) of 0.393 and an interaction score (4H454-AA) of 2.09. It also gave an interaction score (4H48-AA) of -0.511, an interaction score (4H566-AA) of 2.42 and an interaction score (4H605-AA) of 0.918. It also gave an interaction score (4H678-AA) of 0.485, an interaction score (4H717-AA) of -2.09 and an interaction score (4H780-AA) of -1.9. The interaction score (4H794-AA) was 1.15, the interaction score (4H881-AA) was 1.37 and the interaction score (4H906-AA) was -0.74. The interaction score (4H993-AA) was -0.54.

In the case of DEIAALKAKIAALEAEIAALEAKNAALEG [4H775-AA], the interaction score (4H775-AA) is reported as 1.62, the interaction score (4H816-AA) is reported as 1.66 and the interaction score (4H87-AA) is reported as -1.7.
